From publication PMC1635294
Where two headings read alike, the source gives them in different places.

Assays:
[1] = molecular target: T1, SLBP (HBP), His-tagged (human, UniProt Q14493 1-270); experiment: competition
[2] = molecular target: T1, SLBP (HBP), His-tagged; experiment: competition; remark: listed apart in the source

| Binder | binding result [1] | binding result [2] |
| --- | --- | --- |
| GGAGCUCAACAAAAGGCCCUUUUCAGGGCCACCC (structured_RNA) [wild-type stem-loop competitor] | binds | – |
| GGAGCUCAACAAAACCGGAAAGCCUUCCGGACCC (structured_RNA) [mutated stem-loop competitor (*)] | – | no binding |
